Measurements published in patent publication US20240317834A1, “COMPOSITIONS AND METHODS FOR NEUROLOGICAL DISEASES” (CODA BIOTHERAPEUTICS, INC., priority 2020, published 2024).
Positions count from the first letter of the chain named. Names and notes keep the numbering of the source.

Test system: Lenti-X 293T cells
Test: YFP fluorescence quenching anion reporter plate reader assay of engineered receptors stimulated with acetylcholine or a non-native ligand
Assay type: cell-based
Details: for percent quench of YFP fluorescence, 30 nM TC-6683: TC-6683 30 nM; for percent quench of YFP fluorescence, 300 nM TC-6683: TC-6683 300 nM; for percent quench of YFP fluorescence, 3 uM TC-6683: TC-6683 3 uM; for percent quench of YFP fluorescence, 30 uM TC-6683: TC-6683 30 uM; for percent quench of YFP fluorescence, 100 uM TC-6683: TC-6683 100 uM; for percent quench of YFP fluorescence, 10 uM ach: acetylcholine 10 uM; for percent quench of YFP fluorescence, 100 uM ach: acetylcholine 100 uM; for percent quench of YFP fluorescence, 1 mM ach: acetylcholine 1 mM; for percent quench of YFP fluorescence, 3 mM ach: acetylcholine 3 mM
Outline: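 Lenti-X 293T cells carrying a YFP anion reporter were transiently transfected with channel DNA and assayed the next day in HEPES-buffered ECS at pH 7.2. Ligand (acetylcholine or non-native ligand) was added in NaI-substituted ECS. Percent quench was the mean of the last 10 s relative to the 15 s pre-addition baseline.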

B1: CODA339: engineered chimeric LGIC receptor, L131D in SEQ ID NO: 33 (protein)
chain: MRCSPGGVWLALAASLLHVSLQGEFQRKLYKELVKNYNPLERPVANDSQPLTVYFSLSLLQIMDVDEKNQVLTTNIWLQMSWTDHYLQWNVSEYPGVKTVRFPDGQIWKPDILLYNSADERFDATFHTNVDVNSSGHCQYLPPGIFKSSCPMDLKNFPMDVQTCKLKFGSWSYGGWSLDLQMQEADISGYIPNGEWDLVGIPGKRSERFYECCKEPYPDVTFTVTMRRRMGYYLIQMYIPSLLIVILSWISFWINMDAAPARVGLGITTVLTMTTQSSGSRASLPKVSYVKAIDIWMAVCLLFVFSALLEYAAVNFVSRQHKELLRFRRKRRHHKSPMLNLFQEDEAGEGRFNFSAYGMGPACLQAKDGISVKGANNSNTTNPPPAPSKSPEEMRKLFIQRAKKIDKISRIGFPMAFLIFNMFYWIIYKIVRREDVHNQ
modifications: synthetic sequence of chimeric LGIC
YFP fluorescence quenching using CNL001 (1 nM CNL001, first column): 73.711%
YFP fluorescence quenching using CNL001 (1 nM CNL001, second column): 76.44%
YFP fluorescence quenching using TC-5619/Bradanicline (1 nM brd): 4.12%
YFP fluorescence quenching using TC-5619/Bradanicline (3 nM brd): 19.15%
YFP fluorescence quenching using Varenicline (3 nM var, first column): −0.902
YFP fluorescence quenching using Varenicline (3 nM var, second column): −7.62
YFP fluorescence quenching using CNL001 (10 nM CNL001, first column): 77.049%
YFP fluorescence quenching using CNL001 (10 nM CNL001, second column): 77.76%
YFP fluorescence quenching using TC-5619/Bradanicline (10 nM brd): 68.98%
YFP fluorescence quenching using TC-5619/Bradanicline (30 nM brd): 77.29%
YFP fluorescence quenching using Facinicline (30 nM fac): 12.67
YFP fluorescence quenching using Varenicline (30 nM var, first column): −6.009
YFP fluorescence quenching using Varenicline (30 nM var, second column): −3.447
YFP fluorescence quenching using CNL001 (50 nM CNL001, first column): 77.882%
YFP fluorescence quenching using CNL001 (50 nM CNL001, second column): 78.708%
YFP fluorescence quenching using ABT-126 (50 nM abt): −16.65%
YFP fluorescence quenching using CNL001 (100 nM CNL001, first column): 79.567%
YFP fluorescence quenching using CNL001 (100 nM CNL001, second column): 79.273%
YFP fluorescence quenching using CNL002 (100 nM CNL002): 12.83%
YFP fluorescence quenching using ABT-126 (100 nM abt): −12.3%
YFP fluorescence quenching using AZD-0328 (100 nM azd0328): 62.87%
YFP fluorescence quenching using TC-5619/Bradanicline (100 nM brd): 81.41%
YFP fluorescence quenching using ABT-126 (300 nM abt): 18.5%
YFP fluorescence quenching using AZD-0328 (300 nM azd0328): 77.03%
YFP fluorescence quenching using TC-5619/Bradanicline (300 nM brd): 75.79%
YFP fluorescence quenching using Facinicline (300 nM fac): 80.4
YFP fluorescence quenching using Varenicline (300 nM var, first column): 49.328
YFP fluorescence quenching using Varenicline (300 nM var, second column): 47.685
YFP fluorescence quenching using Varenicline (500 nM var, first column): 66.7
YFP fluorescence quenching using Varenicline (500 nM var, second column): 64.798
YFP fluorescence quenching using CNL001 (1 uM CNL001, first column): 79.992%
YFP fluorescence quenching using CNL001 (1 uM CNL001, second column): 79.927%
YFP fluorescence quenching using CNL002 (1 uM CNL002): 77.73%
YFP fluorescence quenching using ABT-126 (1 uM abt): 59.09%
YFP fluorescence quenching using TC-5619/Bradanicline (1 uM brd): 82.26%
YFP fluorescence quenching using TC-6987 (1 uM tc6987): 50
YFP fluorescence quenching using Varenicline (1 uM var, first column): 70.85
YFP fluorescence quenching using Varenicline (1 uM var, second column): 69.038
YFP fluorescence quenching using TC-6987 (3 uM tc6987): 80.39
YFP fluorescence quenching using TC-6987 (5 uM tc6987): 79.93
YFP fluorescence quenching using Facinicline (10 uM fac): 82.18
YFP fluorescence quenching using TC-6987 (10 uM tc6987): 80.99
YFP fluorescence quenching using CNL002 (30 uM CNL002): 80.58%
YFP fluorescence quenching using AZD-0328 (30 uM azd0328): 78.63%
YFP fluorescence quenching using Facinicline (30 uM fac): 82.14
YFP fluorescence quenching using TC-6987 (30 uM tc6987): 83.11
YFP fluorescence quenching using TC-6987 (50 uM tc6987): 83.18
YFP fluorescence quenching using TC-6987 (100 uM tc6987): 82.16
YFP fluorescence quenching using TC-6987 (300 uM tc6987): 64.58
YFP fluorescence quenching using TC-6987 (500 uM tc6987): 76.77
percent quench of YFP fluorescence, 30 nM TC-6683: −18.32%
percent quench of YFP fluorescence, 300 nM TC-6683: −17.25%
percent quench of YFP fluorescence, 3 uM TC-6683: −10%
percent quench of YFP fluorescence, 30 uM TC-6683: −8.51%
percent quench of YFP fluorescence, 100 uM TC-6683: −9.77%
percent quench of YFP fluorescence, 10 uM ach: 4.56%
percent quench of YFP fluorescence, 100 uM ach: 10.19%
percent quench of YFP fluorescence, 1 mM ach: 77.34%
percent quench of YFP fluorescence, 3 mM ach: 77.79%

B2: CODA340: engineered chimeric LGIC receptor, L131E in SEQ ID NO: 33 (protein)
chain: B1 chain with D131E
modifications: synthetic sequence of chimeric LGIC
YFP fluorescence quenching using CNL001 (1 nM CNL001, first column): 76.413%
YFP fluorescence quenching using CNL001 (1 nM CNL001, second column): 77.144%
YFP fluorescence quenching using TC-5619/Bradanicline (3 nM brd): 68.57%
YFP fluorescence quenching using Varenicline (3 nM var, first column): −4.061
YFP fluorescence quenching using Varenicline (3 nM var, second column): −0.568
YFP fluorescence quenching using CNL001 (10 nM CNL001, first column): 78.258%
YFP fluorescence quenching using CNL001 (10 nM CNL001, second column): 78.763%
YFP fluorescence quenching using TC-5619/Bradanicline (30 nM brd): 76.85%
YFP fluorescence quenching using Facinicline (30 nM fac): 82.51
YFP fluorescence quenching using Varenicline (30 nM var, first column): 62.964
YFP fluorescence quenching using Varenicline (30 nM var, second column): 63.631
YFP fluorescence quenching using CNL001 (50 nM CNL001, first column): 79.757%
YFP fluorescence quenching using CNL001 (50 nM CNL001, second column): 79.327%
YFP fluorescence quenching using ABT-126 (50 nM abt): 2.2%
YFP fluorescence quenching using CNL001 (100 nM CNL001, first column): 79.011%
YFP fluorescence quenching using CNL001 (100 nM CNL001, second column): 79.948%
YFP fluorescence quenching using CNL002 (100 nM CNL002): 49.97%
YFP fluorescence quenching using ABT-126 (100 nM abt): 25.39%
YFP fluorescence quenching using AZD-0328 (100 nM azd0328): 82.48%
YFP fluorescence quenching using Facinicline (100 nM fac): 83.6
YFP fluorescence quenching using ABT-126 (300 nM abt): 36.48%
YFP fluorescence quenching using AZD-0328 (300 nM azd0328): 82.04%
YFP fluorescence quenching using TC-5619/Bradanicline (300 nM brd): 78.49%
YFP fluorescence quenching using Facinicline (300 nM fac): 82.92
YFP fluorescence quenching using Varenicline (300 nM var, first column): 74.912
YFP fluorescence quenching using Varenicline (300 nM var, second column): 75.084
YFP fluorescence quenching using Varenicline (500 nM var, first column): 76.346
YFP fluorescence quenching using Varenicline (500 nM var, second column): 75.876
YFP fluorescence quenching using CNL001 (1 uM CNL001, first column): 79.855%
YFP fluorescence quenching using CNL001 (1 uM CNL001, second column): 80.618%
YFP fluorescence quenching using CNL002 (1 uM CNL002): 67.8%
YFP fluorescence quenching using ABT-126 (1 uM abt): 50.76%
YFP fluorescence quenching using TC-6987 (1 uM tc6987): 80.13
YFP fluorescence quenching using Varenicline (1 uM var, first column): 75.805
YFP fluorescence quenching using Varenicline (1 uM var, second column): 74.856
YFP fluorescence quenching using TC-6987 (10 uM tc6987): 81.29
YFP fluorescence quenching using CNL002 (30 uM CNL002): 64.58%
YFP fluorescence quenching using AZD-0328 (30 uM azd0328): 81.8%
YFP fluorescence quenching using Facinicline (30 uM fac): 82.68
YFP fluorescence quenching using TC-6987 (500 uM tc6987): 79.6
percent quench of YFP fluorescence, 30 nM TC-6683: 30.14%
percent quench of YFP fluorescence, 300 nM TC-6683: 33.02%
percent quench of YFP fluorescence, 3 uM TC-6683: 41.68%
percent quench of YFP fluorescence, 30 uM TC-6683: 35.75%
percent quench of YFP fluorescence, 100 uM TC-6683: 24.32%
percent quench of YFP fluorescence, 10 uM ach: 15.29%
percent quench of YFP fluorescence, 30 uM ach (acetylcholine 30 uM): 66.56%
percent quench of YFP fluorescence, 100 uM ach: 81.31%
percent quench of YFP fluorescence, 1 mM ach: 80.77%
percent quench of YFP fluorescence, 3 mM ach: 77.31%
